Measurements taken from patent publication US20160264649A1.

Tests used:
Assay in all cases: cell-based or functional assay
[1] = target: HIV-1 Env of isolate MGRM-D-020 (subtype D) (HIV-1)
[2] = target: HIV-1 Env of isolate 92WR021 (subtype A) (HIV-1)
[3] = target: HIV-1 Env of isolate 93WR029 (subtype A) (HIV-1)
[4] = target: HIV-1 Env of isolate MGRM-F1-014 (subtype F) (HIV-1)
[5] = target: HIV-1 Env of isolate MGRM-F1-006 (subtype F) (HIV-1)
[6] = target: HIV-1 Env of isolate MGRM-F1-023 (subtype F) (HIV-1)
[7] = target: HIV-1 Env of isolate MGRM-D-013 (subtype D) (HIV-1)
[8] = target: HIV-1 Env of isolate MGRM-F1-015 (subtype F) (HIV-1)
[9] = target: HIV-1 Env of isolate MGRM-AE-003 (subtype AE) (HIV-1)
[10] = target: HIV-1 Env of isolate MGRM-D-014 (subtype D) (HIV-1)
[11] = target: HIV-1 Env of isolate MGRM-D-004 (subtype D) (HIV-1)
[12] = target: HIV-1 Env of isolate MGRM-F1-016 (subtype F) (HIV-1)
[13] = target: HIV-1 Env of isolate MGRM-F1-021 (subtype F) (HIV-1)
[14] = target: HIV-1 Env of isolate 94 KE 105 (subtype AC) (HIV-1)
[15] = target: HIV-1 Env of isolate MGRM-F1-012 (subtype F) (HIV-1)
[16] = target: HIV-1 Env of isolate MGRM-AE-004 (subtype AE) (HIV-1)
[17] = target: HIV-1 Env of isolate MGRM-AE-008 (subtype AE) (HIV-1)
[18] = target: HIV-1 Env of isolate MGRM-D-012 (subtype D) (HIV-1)
[19] = target: HIV-1 Env of isolate MGRM-F1-008 (subtype F) (HIV-1)
[20] = target: HIV-1 Env of isolate MGRM-D-011 (subtype D) (HIV-1)
[21] = target: HIV-1 Env of isolate CMU02 (subtype AE) (HIV-1)
[22] = target: HIV-1 Env of isolate 92WR020 (subtype A) (HIV-1)
[23] = target: HIV-1 Env of isolate 92TH021 (subtype AE) (HIV-1)
[24] = target: HIV-1 Env of isolate MGRM-D-029 (subtype D) (HIV-1)
[25] = target: HIV-1 Env of isolate MGRM-D-019 (subtype D) (HIV-1)
[26] = target: HIV-1 Env of isolate MGRM-F1-017 (subtype F) (HIV-1)
[27] = target: HIV-1 Env of isolate MGRM-D-022 (subtype D) (HIV-1)
[28] = target: HIV-1 Env of isolate VLGCA1 (subtype A) (HIV-1)
[29] = target: HIV-1 Env of isolate MGRM-D-003 (subtype D) (HIV-1)
[30] = target: HIV-1 Env of isolate MGRM-F1-022 (subtype F) (HIV-1)
[31] = target: HIV-1 Env of isolate 94UG103 (subtype A) (HIV-1)
[32] = target: HIV-1 Env of isolate MGRM-D-002 (subtype D) (HIV-1)
[33] = target: HIV-1 Env of isolate 92UG114 (subtype D) (HIV-1)
[34] = target: HIV-1 Env of isolate MGRM-AE-007 (subtype AE) (HIV-1)
[35] = target: HIV-1 Env of isolate MGRM-D-016 (subtype D) (HIV-1)
[36] = target: HIV-1 Env of isolate MGRM-AE-002 (subtype AE) (HIV-1)
[37] = target: HIV-1 Env of isolate MGRM-F1-004 (subtype F) (HIV-1)
[38] = target: HIV-1 Env of isolate MGRM-D-024 (subtype D) (HIV-1)
[39] = target: HIV-1 Env of isolate MGRM-D-005 (subtype D) (HIV-1)
[40] = target: HIV-1 Env of isolate MGRM-F1-020 (subtype F) (HIV-1)
[41] = target: HIV-1 Env of isolate MGRM-D-028 (subtype D) (HIV-1)
[42] = target: HIV-1 Env of isolate 92WR024 (subtype A) (HIV-1)
[43] = target: HIV-1 Env of isolate MGRM-AE-005 (subtype AE) (HIV-1)
[44] = target: HIV-1 Env of isolate MGRM-AE-006 (subtype AE) (HIV-1)
[45] = target: HIV-1 Env of isolate MGRM-F1-010 (subtype F) (HIV-1)
[46] = target: HIV-1 Env of isolate 92UG031 (subtype A) (HIV-1)
[47] = target: HIV-1 Env of isolate MGRM-D-001 (subtype D) (HIV-1)
[48] = target: HIV-1 Env of isolate MGRM-AE-001 (subtype AE) (HIV-1)
[49] = target: HIV-1 Env of isolate 92WR009 (subtype A) (HIV-1)
[50] = target: HIV-1 Env of isolate MGRM-D-008 (subtype D) (HIV-1)
[51] = target: HIV-1 Env of isolate 93UG077 (subtype A) (HIV-1)
[52] = target: HIV-1 Env of isolate MGRM-D-026 (subtype D) (HIV-1)
[53] = target: HIV-1 Env of isolate MGRM-D-018 (subtype D) (HIV-1)
[54] = target: HIV-1 Env of isolate 92WR026 (subtype A) (HIV-1)
[55] = target: HIV-1 Env of isolate 92UG037 (subtype A) (HIV-1)
[56] = target: HIV-1 Env of isolate MGRM-D-021 (subtype D) (HIV-1)
[57] = target: HIV-1 Env of isolate MGRM-F1-018 (subtype F) (HIV-1)
[58] = target: HIV-1 Env of isolate MGRM-F1-013 (subtype F) (HIV-1)

Sequence of PGT-143 (4980_N08) (antibody) (VH): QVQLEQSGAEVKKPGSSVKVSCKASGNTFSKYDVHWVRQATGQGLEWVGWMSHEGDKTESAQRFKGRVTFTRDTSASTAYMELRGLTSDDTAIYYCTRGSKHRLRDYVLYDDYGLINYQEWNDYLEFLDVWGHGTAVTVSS
Sequence of PGT-143 (4980_N08) (antibody) (VL): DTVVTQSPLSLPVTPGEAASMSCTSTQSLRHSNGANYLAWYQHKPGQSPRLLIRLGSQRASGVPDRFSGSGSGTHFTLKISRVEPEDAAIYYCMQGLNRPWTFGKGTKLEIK

## PGT-143 (4980_N08) (antibody)
[1]
  IC50 (pseudovirus neutralization): > 50 µg/mL
[2]
  IC50 (pseudovirus neutralization): > 50 µg/mL
[3]
  IC50 (pseudovirus neutralization): 0.053 µg/mL
[4]
  IC50 (pseudovirus neutralization): 0.001 µg/mL
[5]
  IC50 (pseudovirus neutralization): 12.3 µg/mL
[6]
  IC50 (pseudovirus neutralization): 0.972 µg/mL
[7]
  IC50 (pseudovirus neutralization): 0.386 µg/mL
[8]
  IC50 (pseudovirus neutralization): > 50 µg/mL
[9]
  IC50 (pseudovirus neutralization): > 50 µg/mL
[10]
  IC50 (pseudovirus neutralization): 0.009 µg/mL
[11]
  IC50 (pseudovirus neutralization): > 50 µg/mL
[12]
  IC50 (pseudovirus neutralization): > 50 µg/mL
[13]
  IC50 (pseudovirus neutralization): > 50 µg/mL
[14]
  IC50 (pseudovirus neutralization): 0.368 µg/mL
[15]
  IC50 (pseudovirus neutralization): > 50 µg/mL
[16]
  IC50 (pseudovirus neutralization): 0.002 µg/mL
[17]
  IC50 (pseudovirus neutralization): 0.135 µg/mL
[18]
  IC50 (pseudovirus neutralization): > 50 µg/mL
[19]
  IC50 (pseudovirus neutralization): 0.189 µg/mL
[20]
  IC50 (pseudovirus neutralization): > 50 µg/mL
[21]
  IC50 (pseudovirus neutralization): > 50 µg/mL
[22]
  IC50 (pseudovirus neutralization): > 50 µg/mL
[23]
  IC50 (pseudovirus neutralization): 0.003 µg/mL
[24]
  IC50 (pseudovirus neutralization): 0.2 µg/mL
[25]
  IC50 (pseudovirus neutralization): 0.277 µg/mL
[26]
  IC50 (pseudovirus neutralization): 26.3 µg/mL
[27]
  IC50 (pseudovirus neutralization): > 50 µg/mL
[28]
  IC50 (pseudovirus neutralization): 17.4 µg/mL
[29]
  IC50 (pseudovirus neutralization): > 50 µg/mL
[30]
  IC50 (pseudovirus neutralization): 0.082 µg/mL
[31]
  IC50 (pseudovirus neutralization): > 50 µg/mL
[32]
  IC50 (pseudovirus neutralization): > 50 µg/mL
[33]
  IC50 (pseudovirus neutralization): > 50 µg/mL
[34]
  IC50 (pseudovirus neutralization): 13.6 µg/mL
[35]
  IC50 (pseudovirus neutralization): > 50 µg/mL
[36]
  IC50 (pseudovirus neutralization): > 50 µg/mL
[37]
  IC50 (pseudovirus neutralization): 0.036 µg/mL
[38]
  IC50 (pseudovirus neutralization): > 50 µg/mL
[39]
  IC50 (pseudovirus neutralization): 1.41 µg/mL
[40]
  IC50 (pseudovirus neutralization): 0.98 µg/mL
[41]
  IC50 (pseudovirus neutralization): > 50 µg/mL
[42]
  IC50 (pseudovirus neutralization): 0.122 µg/mL
[43]
  IC50 (pseudovirus neutralization): > 50 µg/mL
[44]
  IC50 (pseudovirus neutralization): > 50 µg/mL
[45]
  IC50 (pseudovirus neutralization): > 50 µg/mL
[46]
  IC50 (pseudovirus neutralization): 0.095 µg/mL
[47]
  IC50 (pseudovirus neutralization): > 50 µg/mL
[48]
  IC50 (pseudovirus neutralization): > 50 µg/mL
[49]
  IC50 (pseudovirus neutralization): 0.01 µg/mL
[50]
  IC50 (pseudovirus neutralization): 0.153 µg/mL
[51]
  IC50 (pseudovirus neutralization): > 50 µg/mL
[52]
  IC50 (pseudovirus neutralization): 44.6 µg/mL
[53]
  IC50 (pseudovirus neutralization): > 50 µg/mL
[54]
  IC50 (pseudovirus neutralization): 5.36 µg/mL
[55]
  IC50 (pseudovirus neutralization): 0.854 µg/mL
[56]
  IC50 (pseudovirus neutralization): > 50 µg/mL
[57]
  IC50 (pseudovirus neutralization): 0.701 µg/mL
[58]
  IC50 (pseudovirus neutralization): 0.013 µg/mL
